Measured values reported in publication PMC6030200.

Columns and labels:
[1] = target: recombinant human integrin α6β1 (human) (UniProt P23229); experiment: SPR; Biacore T200; integrin α6β4 or α6β1 immobilised by EDC/NHS coupling on CM5 chips (about 16000 RU); seven 2-fold dilutions of PB injected 120 s at 30 µl/minute, 120 s dissociation; 10 mM HEPES, 150 mM NaCl, 1 mM CaCl2, 1 mM MgCl2, 0.05% P20, pH 7.4; 25 °C
[2] = target: recombinant human integrin α6β4 (human) (UniProt P23229); experiment: as above
[3] = target: HAdV-41 penton base protein, recombinant, soluble (human adenovirus type 41 (HAdV-41)); experiment: negative-stain electron microscopy
[4] = target: HAdV-41 penton base protein, recombinant, soluble (human adenovirus type 41 (HAdV-41)); experiment: gas-phase electrophoretic mobility macromolecular analysis (GEMMA)

recombinant human integrin α6β4 (human), sequence (P23229 24-1130, chain 1 of 2): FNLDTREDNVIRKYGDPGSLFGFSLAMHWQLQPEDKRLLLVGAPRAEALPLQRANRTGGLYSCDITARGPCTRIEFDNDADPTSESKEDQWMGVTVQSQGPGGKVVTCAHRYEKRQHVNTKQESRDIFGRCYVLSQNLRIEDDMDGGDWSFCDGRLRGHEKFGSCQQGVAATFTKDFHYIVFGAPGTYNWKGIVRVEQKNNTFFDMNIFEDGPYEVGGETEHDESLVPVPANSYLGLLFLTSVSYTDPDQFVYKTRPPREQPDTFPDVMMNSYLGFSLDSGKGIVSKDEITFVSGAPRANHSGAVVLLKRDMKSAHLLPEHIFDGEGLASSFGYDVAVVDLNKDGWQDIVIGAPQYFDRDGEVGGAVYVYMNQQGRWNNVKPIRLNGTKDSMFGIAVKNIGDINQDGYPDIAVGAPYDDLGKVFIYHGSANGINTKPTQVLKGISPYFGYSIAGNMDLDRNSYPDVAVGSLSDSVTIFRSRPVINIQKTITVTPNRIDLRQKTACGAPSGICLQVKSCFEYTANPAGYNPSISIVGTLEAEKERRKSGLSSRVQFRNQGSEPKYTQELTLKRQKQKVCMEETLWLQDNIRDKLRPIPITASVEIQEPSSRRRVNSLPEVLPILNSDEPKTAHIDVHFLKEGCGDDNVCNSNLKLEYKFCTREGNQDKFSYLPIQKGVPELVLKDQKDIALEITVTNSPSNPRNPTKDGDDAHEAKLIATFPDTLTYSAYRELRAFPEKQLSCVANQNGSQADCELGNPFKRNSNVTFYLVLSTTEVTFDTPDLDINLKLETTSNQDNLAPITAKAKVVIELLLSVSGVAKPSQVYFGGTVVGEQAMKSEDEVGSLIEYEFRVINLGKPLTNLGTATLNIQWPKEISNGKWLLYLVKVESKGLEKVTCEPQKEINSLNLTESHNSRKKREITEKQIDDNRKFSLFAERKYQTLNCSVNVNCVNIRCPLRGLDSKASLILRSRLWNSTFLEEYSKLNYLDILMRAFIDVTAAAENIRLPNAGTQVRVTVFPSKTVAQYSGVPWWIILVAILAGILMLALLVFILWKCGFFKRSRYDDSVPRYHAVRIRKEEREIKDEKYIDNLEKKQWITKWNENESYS
recombinant human integrin α6β4 (human), sequence (P16144 28-710, chain 2 of 2, further chain): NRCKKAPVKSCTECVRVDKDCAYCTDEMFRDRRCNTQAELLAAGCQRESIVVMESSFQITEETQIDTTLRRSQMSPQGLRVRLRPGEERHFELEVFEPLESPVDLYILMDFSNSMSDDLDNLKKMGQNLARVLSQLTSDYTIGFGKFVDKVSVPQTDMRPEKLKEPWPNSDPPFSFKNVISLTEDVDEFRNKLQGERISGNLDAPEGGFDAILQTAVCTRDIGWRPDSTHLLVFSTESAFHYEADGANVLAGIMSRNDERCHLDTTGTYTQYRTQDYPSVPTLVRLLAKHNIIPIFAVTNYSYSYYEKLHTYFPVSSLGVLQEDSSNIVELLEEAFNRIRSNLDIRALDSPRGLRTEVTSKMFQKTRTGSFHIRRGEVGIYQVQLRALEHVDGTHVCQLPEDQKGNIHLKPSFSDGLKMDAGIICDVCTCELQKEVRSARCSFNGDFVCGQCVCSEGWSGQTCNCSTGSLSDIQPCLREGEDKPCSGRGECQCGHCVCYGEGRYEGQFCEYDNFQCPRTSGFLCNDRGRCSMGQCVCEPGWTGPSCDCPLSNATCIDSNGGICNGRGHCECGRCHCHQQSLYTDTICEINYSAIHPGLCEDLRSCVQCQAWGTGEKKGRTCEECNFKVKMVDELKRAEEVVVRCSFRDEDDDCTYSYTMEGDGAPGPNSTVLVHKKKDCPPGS

Substance	fold lower affinity than to α6β4 [1] [fold]	koff [1] [s⁻¹]	fold lower affinity than 40PB and 41PB [1] [fold]	fold lower affinity than 40PB and 41PB [2] [fold]	kon [1] [M⁻¹ s⁻¹]	stoichiometry N [3]	stoichiometry N [4]
HAdV-40 penton base protein, recombinant, soluble (natural protein)	10	0.1					
HAdV-5 penton base protein, recombinant, soluble (from UniProt P12538 1-571) (natural protein)			3	3			
HAdV-41 penton base protein, recombinant, soluble (natural protein)	10				10000	5	5
